From patent CN114591430A
Values joined by “and” are separate entries in the source; they are usually repeats but may differ in a detail not shown here. Identical values can stand only once.

Key:
CHO细胞裂解液 [1] = test: sandwich ELISA, coat B2, detection biotin-B6, lysate 62.5 ug/ml
Vero细胞裂解液 [2] = test: as above
HEK293细胞裂解液 [3] = test: as above
牛血清白蛋白(BSA) (bovine) [4] = target: 牛血清白蛋白(BSA) (bovine) (UniProt P02769); test: indirect ELISA, BSA coated at 1 ug/ml, purified antibody at dilution 1K, HRP goat anti-mouse IgG
牛血清白蛋白(BSA) (bovine) [5] = target: 牛血清白蛋白(BSA) (bovine) (UniProt P02769); test: sandwich ELISA, coat B2 2 ug/ml, BSA 1 ng/ml, detection biotin-B3 0.2 ug/ml
CHO细胞裂解液 [6] = test: sandwich ELISA, coat B2, detection biotin-B6, lysate 125 ug/ml
Vero细胞裂解液 [7] = test: as above
HEK293细胞裂解液 [8] = test: as above
牛血清白蛋白(BSA) (bovine) [9] = target: 牛血清白蛋白(BSA) (bovine) (UniProt P02769); test: ELISA, BSA coated at 1 ug/ml, biotin-labelled antibody at dilution 256K, HRP-avidin
牛血清白蛋白(BSA) (bovine) [10] = target: 牛血清白蛋白(BSA) (bovine) (UniProt P02769); test: indirect ELISA, BSA coated at 1 ug/ml, purified antibody at dilution 8K, HRP goat anti-mouse IgG
牛血清白蛋白(BSA) (bovine) [11] = target: 牛血清白蛋白(BSA) (bovine) (UniProt P02769); test: sandwich ELISA, coat B2 2 ug/ml, BSA 3 ng/ml, detection biotin-B6 0.2 ug/ml
牛血清白蛋白(BSA) (bovine) [12] = target: 牛血清白蛋白(BSA) (bovine) (UniProt P02769); test: sandwich ELISA, coat B2 2 ug/ml, BSA 48 ng/ml, detection biotin-B6 0.2 ug/ml
CHO细胞裂解液 [13] = test: sandwich ELISA, coat B2, detection biotin-B6, lysate 250 ug/ml
Vero细胞裂解液 [14] = test: as above
HEK293细胞裂解液 [15] = test: as above
牛血清白蛋白(BSA) (bovine) [16] = target: 牛血清白蛋白(BSA) (bovine) (UniProt P02769); test: sandwich ELISA, coat B2 2 ug/ml, BSA 1 ng/ml, detection biotin-B4 0.2 ug/ml
牛血清白蛋白(BSA) (bovine) [17] = target: 牛血清白蛋白(BSA) (bovine) (UniProt P02769); test: sandwich ELISA, coat B2 2 ug/ml, BSA 24 ng/ml, detection biotin-B6 0.2 ug/ml, mean of A and B
牛血清白蛋白(BSA) (bovine) [18] = target: 牛血清白蛋白(BSA) (bovine) (UniProt P02769); test: indirect ELISA, BSA coated at 1 ug/ml, purified antibody at dilution 512K, HRP goat anti-mouse IgG
牛血清白蛋白(BSA) (bovine) [19] = target: 牛血清白蛋白(BSA) (bovine) (UniProt P02769); test: indirect ELISA, BSA coated at 1 ug/ml, purified antibody at dilution 128K, HRP goat anti-mouse IgG
CHO细胞裂解液 [20] = test: sandwich ELISA, coat B2, detection biotin-B6, lysate 31.25 ug/ml
Vero细胞裂解液 [21] = test: as above
HEK293细胞裂解液 [22] = test: as above
CHO细胞裂解液 [23] = test: sandwich ELISA, coat B2, detection biotin-B6, lysate 500 ug/ml
Vero细胞裂解液 [24] = test: as above
HEK293细胞裂解液 [25] = test: as above
牛血清白蛋白(BSA) (bovine) [26] = target: 牛血清白蛋白(BSA) (bovine) (UniProt P02769); test: ELISA, BSA coated at 1 ug/ml, biotin-labelled antibody at dilution 128K, HRP-avidin
CHO细胞裂解液 [27] = test: sandwich ELISA, coat B2, detection biotin-B6, lysate 1 mg/ml
Vero细胞裂解液 [28] = test: as above
HEK293细胞裂解液 [29] = test: as above
牛血清白蛋白(BSA) (bovine) [30] = target: 牛血清白蛋白(BSA) (bovine) (UniProt P02769); test: sandwich ELISA, coat B2 2 ug/ml, BSA 12 ng/ml, detection biotin-B6 0.2 ug/ml, mean of A and B
牛血清白蛋白(BSA) (bovine) [31] = target: 牛血清白蛋白(BSA) (bovine) (UniProt P02769); test: sandwich ELISA, coat B2 2 ug/ml, BSA 1 ng/ml, detection biotin-B6 0.2 ug/ml
牛血清白蛋白(BSA) (bovine) [32] = target: 牛血清白蛋白(BSA) (bovine) (UniProt P02769); test: ELISA, BSA coated at 1 ug/ml, biotin-labelled antibody at dilution 2K, HRP-avidin
牛血清白蛋白(BSA) (bovine) [33] = target: 牛血清白蛋白(BSA) (bovine) (UniProt P02769); test: sandwich ELISA, coat B2 2 ug/ml, BSA 0.75 ng/ml, detection biotin-B6 0.2 ug/ml

Chain of UniProt P02769 (P02769 25-607): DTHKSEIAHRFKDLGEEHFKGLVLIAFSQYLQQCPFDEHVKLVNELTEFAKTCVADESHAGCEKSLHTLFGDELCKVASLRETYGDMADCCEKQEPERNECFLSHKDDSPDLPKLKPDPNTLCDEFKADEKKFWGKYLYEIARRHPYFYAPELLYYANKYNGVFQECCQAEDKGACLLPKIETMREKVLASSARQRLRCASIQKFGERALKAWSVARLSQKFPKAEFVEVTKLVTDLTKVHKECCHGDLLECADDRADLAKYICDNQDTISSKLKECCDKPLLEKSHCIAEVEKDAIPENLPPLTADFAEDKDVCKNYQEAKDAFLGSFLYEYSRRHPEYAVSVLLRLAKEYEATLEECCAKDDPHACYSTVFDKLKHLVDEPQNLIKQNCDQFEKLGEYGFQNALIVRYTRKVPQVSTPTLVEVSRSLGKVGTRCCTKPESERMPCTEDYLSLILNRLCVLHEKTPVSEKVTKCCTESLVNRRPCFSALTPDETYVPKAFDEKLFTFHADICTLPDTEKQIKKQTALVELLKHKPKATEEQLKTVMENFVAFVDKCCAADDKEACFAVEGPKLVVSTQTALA

B1: BSA抗体B2 (antibody, V domains shown)
VH: VKLQESGGGLVKPGGSLKLSCAASGFTFSLYDESWVRQTPEKRLEWVAEIFLGVYRYVPESKVRFTMSRDNAKNTLYLQMSSLRSEDTAMYYCVRLCYWEPEVKKCWGQGTTVTVSS
VL: DIELTQSPLTLSVTIGQPASISCESDLSLKESLDWLLQRPGQSPKRLIYEDLNADCGVPDRFTGSGSGTDSTLKISRVEAEDLGVYYCEIKGTFRWSFGGGTKLEIK
For B1, the OD450 (CHO细胞裂解液 [1]) was 0.129, the OD450 (Vero细胞裂解液 [2]) was 0.137 and the OD450 (HEK293细胞裂解液 [3]) was 0.142. For the same binder, the OD450 (牛血清白蛋白(BSA) (bovine) [4]) was 2.13, the OD450 (牛血清白蛋白(BSA) (bovine) [5]) was 0.342 and 0.346 and the OD450 (CHO细胞裂解液 [6]) was 0.14. The OD450 (Vero细胞裂解液 [7]) was 0.132, the OD450 (HEK293细胞裂解液 [8]) was 0.14 and the OD450 (牛血清白蛋白(BSA) (bovine) [9]) was 0.509. The OD450 (牛血清白蛋白(BSA) (bovine) [10]) was 0.728, the OD450 (牛血清白蛋白(BSA) (bovine) [11]) was 0.509 and 0.515 and the OD450 (牛血清白蛋白(BSA) (bovine) [12]) was 2.2 and 2.21. The OD450 (CHO细胞裂解液 [13]) was 0.134, the OD450 (Vero细胞裂解液 [14]) was 0.14 and the OD450 (HEK293细胞裂解液 [15]) was 0.134. The OD450 (牛血清白蛋白(BSA) (bovine) [16]) was 0.319 and 0.332, the OD450 (平均值) (牛血清白蛋白(BSA) (bovine) [17]) was 1.5 and the OD450 (牛血清白蛋白(BSA) (bovine) [18]) was 0.137. The OD450 (牛血清白蛋白(BSA) (bovine) [19]) was 0.357, the OD450 (CHO细胞裂解液 [20]) was 0.136 and the OD450 (Vero细胞裂解液 [21]) was 0.142. For the same binder, the OD450 (HEK293细胞裂解液 [22]) was 0.134, the OD450 (CHO细胞裂解液 [23]) was 0.135 and the OD450 (Vero细胞裂解液 [24]) was 0.134. The OD450 (HEK293细胞裂解液 [25]) was 0.139, the OD450 (牛血清白蛋白(BSA) (bovine) [26]) was 0.821 and the OD450 (CHO细胞裂解液 [27]) was 0.132. It also gave an OD450 (Vero细胞裂解液 [28]) of 0.129, an OD450 (HEK293细胞裂解液 [29]) of 0.142 and an OD450 (平均值) (牛血清白蛋白(BSA) (bovine) [30]) of 1. The OD450 (牛血清白蛋白(BSA) (bovine) [31]) was 0.38 and 0.378, the OD450 (牛血清白蛋白(BSA) (bovine) [32]) was 2.21 and the OD450 (牛血清白蛋白(BSA) (bovine) [33]) was 0.31 and 0.296.
